The target of the assay is human CD47 expressed on cells (red blood cells, K562 cells, THP-1 macrophages) (human) (UniProt Q08722). As to the kind of experiment: cell-based or functional assay.

B1: mouse anti-human CD47 antibody B6H12 (BD Biosciences) (antibody, from another filing, V domains shown)
VH: EVQLVESGGDLVKPGGSLKLSCAASGFTFSGYGMSWVRQTPDKRLEWVATITSGGTYTYYPDSVKGRFTISRDNAKNTLYLQIDSLKSEDTAIYFCARSLAGNAMDYWGQGTSVTVSS
VL: DIVMTQSPATLSVTPGDRVSLSCRASQTISDYLHWYQQKSHESPRLLIKFASQSISGIPSRFSGSGSGSDFTLSINSVEPEDVGVYYCQNGHGFPRTFGGGTKLEIK
As to B1, the % THP-1 macrophages phagocytosing opsonized RBCs is 30%.
